{
  "source": "patent US20250249118A1",
  "about": "(Eli Lilly, published 2025)",
  "binders": {"B1": {"name": "TBP4 (One Arm Heteromab 1, A378C) (antibody)", "heavy": "EVQLVESGGGLVKPGGSLRLSCVASGFTFSSYSMNWVRQAPGKGLEWVSSISSSSSYIYYADSVKGRFTISRDNAKNSLYLQMNSLRAEDTAVYYCARRHGYSNSDAFDNWGQGTLVTVSSASTKGPSVFPLAPCSRSTSESTAALGCLVKDYFPEPVTVSWNSGALTSGVHTFPAVLQSSGLYSLSSVVTVPSSSLGTKTYTCNVDHKPSNTKVDKRVESKYGPPCPPCPAPEAAGGPSVFLFPPKPKDTLMISRTPEVTCVVVDVSQEDPEVQFNWYVDGVEVHNAKTKPREEQFNSTYRVVSVLTVLHQDWLNGKEYKCKVSNKGLPSSIEKTISKAKGQPREPQVSTLPPSQEEMTKNQVSLMCLVYGFYPSDICVEWESNGQPENNYKTTPPVLDSDGSFFLYSVLTVDKSRWQEGNVFSCSVMHEALHNHYTQKSLSLSLG", "light": "DIQMTQSPSAMSASVGDRVTITCRASQGISHYLVWFQQKPGKVPKRLIYAASSLQSGVPSRFSGSGSGTEFTLTISSLQPEDFATYYCLQHNSYPWTFGQGTKVEIKRTVAAPSVFIFPPSDEQLKSGTASVVCLLNNFYPREAKVQWKVDNALQSGNSQESVTEQDSKDSTYSLSSTLTLSKADYEKHKVYACEVTHQGLSSPVTKSFNRGEC", "Fc": "ESKYGPPCPPCPAPEAAGGPSVFLFPPKPKDTLMISRTPEVTCVVVDVSQEDPEVQFNWYVDGVEVHNAKTKPREEQFNSTYRVVSVLTVLHQDWLNGKEYKCKVSNKGLPSSIEKTISKAKGQPREPQVYTLPPSQGDMTKNQVQLTCLVKGFYPSDICVEWESNGQPENNYKTTPPVLDSDGSFFLASRLTVDKSRWQEGNVFSCSVMHEALHNHYTQKSLSLSLG", "notes": "One-arm heteromab: HC1 with LC1, plus an Fc-only HC2; IgG4 PAA; also called OAH1; copies: 1 + 1 + 1"}},
  "key": {"cynomolgus TfR ECD": {"molecular_target": "T1, cynomolgus TfR ECD (cynomolgus)", "T1 chain": "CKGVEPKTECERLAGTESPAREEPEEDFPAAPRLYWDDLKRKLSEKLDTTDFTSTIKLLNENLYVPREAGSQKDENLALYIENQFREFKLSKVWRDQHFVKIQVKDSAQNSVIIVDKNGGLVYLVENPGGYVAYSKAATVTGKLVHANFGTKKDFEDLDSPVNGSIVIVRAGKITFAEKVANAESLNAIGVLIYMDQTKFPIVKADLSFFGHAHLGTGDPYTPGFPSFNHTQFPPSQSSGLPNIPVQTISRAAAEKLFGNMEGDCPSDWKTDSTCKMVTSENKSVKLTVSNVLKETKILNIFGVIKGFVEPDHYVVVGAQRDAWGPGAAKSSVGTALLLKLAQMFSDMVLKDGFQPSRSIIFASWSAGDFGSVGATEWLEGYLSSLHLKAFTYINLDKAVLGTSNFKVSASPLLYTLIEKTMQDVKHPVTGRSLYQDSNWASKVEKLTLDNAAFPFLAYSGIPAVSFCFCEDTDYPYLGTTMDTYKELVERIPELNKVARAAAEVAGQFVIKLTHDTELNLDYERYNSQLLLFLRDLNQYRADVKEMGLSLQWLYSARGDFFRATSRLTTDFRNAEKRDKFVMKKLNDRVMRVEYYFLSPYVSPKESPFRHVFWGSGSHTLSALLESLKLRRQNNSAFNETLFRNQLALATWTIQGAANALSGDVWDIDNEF", "assay": "SPR, Biacore 8K, 37 C, TfR ECD amine-coupled on CM4 chip, TBP as analyte, 2-state model; SEM 2.565 nM, n = 3", "description": "(§1) Target human and cynomologus TfR ECD's were immobilized on a CM4 chip (Cytiva P/N 29104989) using standard NHS-EDC amine coupling. The TfR binding proteins were prepared at a final concentration of 0.3, 0.1, 0.033, 0.01, 0.0033, 0.001, 0.00033, 0.0001 μM respectively by dilution of stock solution into running buffer.\n(§2) Binding analysis was performed in a multi-cycle kinetics manner. Each analysis cycle consists of (1) injection of the lowest to highest concentration proteins over all Fc at 50 μL/min for 140 seconds followed by return to buffer flow for 400 seconds to monitor dissociation phase; (2) regeneration of chip surfaces with injection of 3M magnesium chloride, for 30 seconds at 100 μL/min over all cells; and (3) equilibration of chip surfaces with a 50 μL (30-sec) injection of HBS-EP+. Data were processed using standard double-referencing and fit to a 2-state binding model using Biacore 8K Evaluation software, to determine the association rate (kₒₙ, M⁻¹ s⁻¹ units), dissociation rate (koff, s⁻¹ units), and Rₘₐₓ (RU units). The equilibrium dissociation constant (KD) is calculated from the relationship KD=koff/kₒₙ, and is in molar units."}, "human TfR ECD": {"molecular_target": "T2, human TfR ECD (human, UniProt P02786 89-760)", "T2 construct": "extracellular domain; also called human Transferrin Receptor 1 extracellular domain", "assay": "SPR, Biacore 8K, 37 C, TfR ECD amine-coupled on CM4 chip, TBP as analyte, 2-state model; SEM 7.949 nM, n = 3", "description": "as §1, §2"}},
  "data": [
    {"binder": "B1", "values": [
      {"measurement": "Kd", "setting": "cynomolgus TfR ECD", "value": 300, "unit": "nM"},
      {"measurement": "Kd", "setting": "human TfR ECD", "value": 154, "unit": "nM"}
    ]}
  ]
}
